This note sets out measurements from paper PMC7016264, “Redox requirements for ubiquitin-like urmylation of Ahp1, a 2-Cys peroxiredoxin from yeast” (Redox Biology, 2020).

The labels stand for the following.
B1: His-tagged Ahp1, wild-type (recombinant) [S. cerevisiae] / itself (parent)
chain: MSDLVNKKFPAGDYKFQYIAISQSDADSESCKMPQTVEWSKLISENKKVIITGAPAAFSPTCTVSHIPGYINYLDELVKEKEVDQVIVVTVDNPFANQAWAKSLGVKDTTHIKFASDPGCAFTKSIGFELAVGDGVYWSGRWAMVVENGIVTYAAKETNPGTDVTVSSVESVLAHL

This assay covers variants of B1. Put plainly: SEC-MALS. The following applies: with itself.
Regarding chain 1 F95A, the screen value was determined as 31.6 kDa.

Regarding chain 1 F58A F95A, the screen value stood at 20.4 kDa.

Regarding chain 1 F58A, the screen value was determined as 22.8 kDa.
